Holding throughout (assay): ELISA; biotinylated BACE020 on plate-coated BACE1 ECD mutant; ratio to WT
A general note: An ELISA detects its analyte on a solid surface through an enzyme-linked reagent.

Experiment [1] has as its target T1, human BACE1 ECD (22-457) T133A, His8 (human, UniProt P56817 22-457).
T1 construct: also called T133A (72)
The procedure:
(§1) Maxisorp microtiter plates (Nalge Nunc International, Rochester, N.Y.) were coated overnight at 4° C. with 2 μg/ml BACE1 mutant in 50 mM carbonate, pH 9.6. The coated wells were washed with buffer (PBS, 0.05% Polysorbate 20) and blocked with assay buffer (PBS, pH 7.4, 0.5% BSA, 0.05% Tween 20, 15 ppm Proclin) for 1 h at room temperature with gentle shaking. […] After washing, the amount of peptide bound to the plate was detected by the addition of Streptavidin-Horseradish Peroxidase Conjugate (GE Healthcare, Piscataway, N.J.) followed by the addition of TMB/H₂O₂ substrate (KPL, Gaithersburg, Md.). The reaction was quenched with 1 M phosphoric acid and the A₄₅₀ measured on a Molecular Devices SpectraMax Plus384 microplate reader. Concentrations to give half maximal effective concentration (EC₅₀) were determined using a 4-parameter non-linear regression curve-fitting program with Kaleidagraph (Synergy Software, Reading, Pa.). […] Concentrations to give half maximal inhibition concentration (IC₅₀) were determined using a 4-parameter non-linear regression curve-fitting program with Kaleidagraph.
(§2) The fold decrease in binding affinity was determined as the relative EC₅₀ values of EC₅₀ (mut)/EC₅₀ (WT), which are listed in Table 3.

Experiment [2] addresses T2, human BACE1 ECD (22-457) K168A, His8 (human, UniProt P56817 22-457).
T2 construct: also called K168A (107)
The procedure: as §1, §2

In experiment [3] the target is T3, human BACE1 ECD (22-457) F169A, His8 (human, UniProt P56817 22-457).
T3 construct: also called F169A (108)
The procedure:
as §1, §2

The target of experiment [4] is T4, human BACE1 ECD (22-457) I171A, His8 (human, UniProt P56817 22-457).
T4 construct: also called I171A (110)
The procedure:
as §1, §2

In experiment [5] the target is T5, human BACE1 ECD (22-457) W176A, His8 (human, UniProt P56817 22-457).
T5 construct: also called W176A (115)
On the procedure:
as §1, §2

For experiment [6], the target named is T6, human BACE1 ECD (22-457) I179A, His8 (human, UniProt P56817 22-457).
T6 construct: also called I179A (118)
The procedure:
as §1, §2

Experiment [7] deals with human BACE1 ECD (22-457) R189A, His8 (human, UniProt P56817 22-457). On the procedure: as §1, §2
For experiment [8], the target named is T7, human BACE1 ECD (22-457) K285A, His8 (human, UniProt P56817 22-457).
T7 construct: also called K285A (224)
On the procedure: as §1, §2

Experiment [9] deals with T8, human BACE1 ECD (22-457) D289A, His8 (human, UniProt P56817 22-457).
T8 construct: also called D289A (228)
The procedure:
as §1, §2

Experiment [10] addresses T9, human BACE1 ECD (22-457) T292A, His8 (human, UniProt P56817 22-457).
T9 construct: also called T292A (231)
The procedure: as §1, §2

Experiment [11] addresses T10, human BACE1 ECD (22-457) T293A, His8 (human, UniProt P56817 22-457).
T10 construct: also called T293A (232)
The procedure:
as §1, §2

The target of experiment [12] is T11, human BACE1 ECD (22-457) N294A, His8 (human, UniProt P56817 22-457).
T11 construct: also called N294A (233)
The procedure: as §1, §2

The target of experiment [13] is T12, human BACE1 ECD (22-457) K382A, His8 (human, UniProt P56817 22-457).
T12 construct: also called K382A (321)
On the procedure: as §1, §2

Experiment [14] deals with T13, human BACE1 ECD (22-457) G72A, His8 (human, UniProt P56817 22-457).
T13 construct: also called G72A (11)
The procedure: as §1, §2

The target in experiment [15] is T14, human BACE1 ECD (22-457) G74A, His8 (human, UniProt P56817 22-457).
T14 construct: also called G74A (13)
On the procedure: as §1, §2

For experiment [16], the target named is T15, human BACE1 ECD (22-457) L91A, His8 (human, UniProt P56817 22-457).
T15 construct: also called L91A (30)
The procedure:
as §1, §2

The target in experiment [17] is T16, human BACE1 ECD (22-457) D93A, His8 (human, UniProt P56817 22-457).
T16 construct: also called D93A (32)
The procedure:
as §1, §2

For experiment [18], the target named is T17, human BACE1 ECD (22-457) S96A, His8 (human, UniProt P56817 22-457).
T17 construct: also called S96A (35)
The procedure:
as §1, §2

Starred links: 1 amine or outer side, 2 acyl side, 3 side chain; linkers in the order of their positions; H or OH if unused. Positions of bridges follow the written chain, without caps; N, C: chain ends. NH(CH2)3(OCH2CH2)2O(CH2)3NH = C(CN[*:1])COCCOCCOCCCN[*:2]

From US20140228277A1 (Genentech, published 2014) come the findings set out here.

T2 sequence (P56817 other isoform, or with tags, fused parts or gaps K168A K168A): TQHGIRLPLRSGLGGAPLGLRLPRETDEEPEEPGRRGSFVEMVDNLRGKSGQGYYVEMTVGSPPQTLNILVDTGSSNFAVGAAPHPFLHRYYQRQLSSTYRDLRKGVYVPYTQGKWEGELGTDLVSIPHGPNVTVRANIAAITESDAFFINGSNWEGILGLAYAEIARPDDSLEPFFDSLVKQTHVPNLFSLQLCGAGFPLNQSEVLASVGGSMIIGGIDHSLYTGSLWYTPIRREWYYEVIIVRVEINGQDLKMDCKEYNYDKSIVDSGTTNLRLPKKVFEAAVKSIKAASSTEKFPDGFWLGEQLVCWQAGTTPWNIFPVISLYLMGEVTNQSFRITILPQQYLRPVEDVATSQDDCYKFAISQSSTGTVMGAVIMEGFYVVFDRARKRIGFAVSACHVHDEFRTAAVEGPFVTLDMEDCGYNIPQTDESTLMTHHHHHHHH
T11 sequence (P56817 other isoform, or with tags, fused parts or gaps N294A N294A): as the sequence (P56817 other isoform, or with tags, fused parts or gaps K168A K168A) above, with A147K, N273A counted along it
T6 sequence (P56817 other isoform, or with tags, fused parts or gaps I179A I179A): as the sequence (P56817 other isoform, or with tags, fused parts or gaps K168A K168A) above, with A147K, I158A counted along it
T16 sequence (P56817 other isoform, or with tags, fused parts or gaps D93A D93A): as the sequence (P56817 other isoform, or with tags, fused parts or gaps K168A K168A) above, with D72A, A147K counted along it
T5 sequence (P56817 other isoform, or with tags, fused parts or gaps W176A W176A): as the sequence (P56817 other isoform, or with tags, fused parts or gaps K168A K168A) above, with A147K, W155A counted along it
T8 sequence (P56817 other isoform, or with tags, fused parts or gaps D289A D289A): as the sequence (P56817 other isoform, or with tags, fused parts or gaps K168A K168A) above, with A147K, D268A counted along it
T4 sequence (P56817 other isoform, or with tags, fused parts or gaps I171A I171A): as the sequence (P56817 other isoform, or with tags, fused parts or gaps K168A K168A) above, with A147K, I150A counted along it
T14 sequence (P56817 other isoform, or with tags, fused parts or gaps G74A G74A): as the sequence (P56817 other isoform, or with tags, fused parts or gaps K168A K168A) above, with G53A, A147K counted along it
T3 sequence (P56817 other isoform, or with tags, fused parts or gaps F169A F169A): as the sequence (P56817 other isoform, or with tags, fused parts or gaps K168A K168A) above, with A147K, F148A counted along it
T15 sequence (P56817 other isoform, or with tags, fused parts or gaps L91A L91A): as the sequence (P56817 other isoform, or with tags, fused parts or gaps K168A K168A) above, with L70A, A147K counted along it
T13 sequence (P56817 other isoform, or with tags, fused parts or gaps G72A G72A): as the sequence (P56817 other isoform, or with tags, fused parts or gaps K168A K168A) above, with G51A, A147K counted along it
Chain of human BACE1 ECD (22-457) R189A, His8 (P56817 other isoform, or with tags, fused parts or gaps R189A R189A): as the sequence (P56817 other isoform, or with tags, fused parts or gaps K168A K168A) above, with A147K, R168A counted along it
T9 sequence (P56817 other isoform, or with tags, fused parts or gaps T292A T292A): as the sequence (P56817 other isoform, or with tags, fused parts or gaps K168A K168A) above, with A147K, T271A counted along it
T7 sequence (P56817 other isoform, or with tags, fused parts or gaps K285A K285A): as the sequence (P56817 other isoform, or with tags, fused parts or gaps K168A K168A) above, with A147K, K264A counted along it
T10 sequence (P56817 other isoform, or with tags, fused parts or gaps T293A T293A): as the sequence (P56817 other isoform, or with tags, fused parts or gaps K168A K168A) above, with A147K, T272A counted along it
T12 sequence (P56817 other isoform, or with tags, fused parts or gaps K382A K382A): as the sequence (P56817 other isoform, or with tags, fused parts or gaps K168A K168A) above, with A147K, K361A counted along it
T1 sequence (P56817 other isoform, or with tags, fused parts or gaps T133A T133A): as the sequence (P56817 other isoform, or with tags, fused parts or gaps K168A K168A) above, with T112A, A147K counted along it
T17 sequence (P56817 other isoform, or with tags, fused parts or gaps S96A S96A): as the sequence (P56817 other isoform, or with tags, fused parts or gaps K168A K168A) above, with S75A, A147K counted along it

B1: biotinylated BACE020 (Ac-NEESMYCRLLGIGCG-(PEG)3-biotin) (peptide)
peptide: Ac-NEESMYCRLLGIGCG-{NH(CH2)3(OCH2CH2)2O(CH2)3NH-biotin}
modifications: disulfide 7-14
notes: also called C-terminal biotin tagged BACE020 peptide
On to B1, for which the “Fold Decrease in Binding EC50 (Mut)/EC50 (WT)” value (shortened to “Fold Decrease in Binding EC50”) in experiment [1] came to 1.1 fold; in experiment [2], 1 fold; in experiment [3] it was 1.9 fold; in experiment [4], 1020 fold; in [5] it was 690 fold; in experiment [6], 2.6 fold. Besides, the “Fold Decrease in Binding EC50” value in experiment [7] is 2.7 fold; in experiment [8], 4 fold; in experiment [9] it was 2210 fold; in [10], 73.6 fold; in [11], 349 fold; in [12], 2.4 fold. Further, the “Fold Decrease in Binding EC50” value in experiment [13] is 4.5 fold; in experiment [14], 6.5 fold; in [15], 488 fold; in experiment [16], 1 fold; in experiment [17], 568 fold; in experiment [18] it was 1 fold.
